{"source": "the nanobody polyreactivity screen of Harvey et al. (2022)"}
{"assay": "yeast display, Sf9 membrane polyspecificity reagent, FACS + sequencing; frameworks hold sequencing errors", "method_in_brief": "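Sorting gates, low and high (top ~1%), were placed on anti-HA fluorescence to track expression and on streptavidin fluorescence to track reagent binding. A clone's polyreactivity label is taken from the gate it came out of. The reagent was 10% biotinylated, detergent-solubilized Sf9 membrane, applied for 1 hour at 4 °C to galactose-induced yeast display cells.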"}
{"sequence": "QVQLVESGGGLVQAGGSLRLSCAASGSTFLSYAKGWYRQATGKEREVVAAISGRGGSTYYADSVKGRFTISRDNAKNTVYLKMNSLKPEDTAVYYCARVYRPSADTYNYWGQGTQVTVSS", "polyreactivity (PSR sort gate)": "high polyreactivity"}
{"sequence": "QVQLVESGGGLVQAGGSLRLSCAASGSTFLSYAMGWYRQAPGKERELVATINRGGSTYYADSVKGRFTISRDNAKNTVYLQMNSLKPEDTAVYYCAKANKRGRYNYWGQGTQVTVSS", "polyreactivity (PSR sort gate)": "high polyreactivity"}
{"sequence": "QVQLVESGGGLVQAGGSLRLSCAASGSTFLTNAMGWYRQAPGKERELVAAIRWRGGDTRYADSVKGRFTISRDNAKNTVYLQMNSLKPEDTAVYYCAAQYRKTQYQKKYDYWGQGTQVTVSS", "polyreactivity (PSR sort gate)": "high polyreactivity"}
{"sequence": "QVQLVESGGGLVQAGGSLRLSCAASGSTFLTNTMGWYRQAPGKERELVAIISRSSGTTYYSDSVKGRFTISRDNAKNTVYLQMNSLKPEDTAVYYCAKRYRRASPYSKNVYWGQGTQVTVSS", "polyreactivity (PSR sort gate)": "high polyreactivity"}
{"sequence": "QVQLVESGGGLVQAGGSLRLSCAASGSTFLTYDMGWYRQAPGKERELVAAISGGGSTNYADSVKGRFTISRDNAKNTFYLQMNSLKPVDTAVYYCAAKASGNFYYYWGQGTQVTVSS", "polyreactivity (PSR sort gate)": "high polyreactivity"}
{"sequence": "QVQLVESGGGLVQAGGSLRLSCAASGSTFLVYAMGWYRQAPGKERELVAVITRGVRTFYADSVKGRFTFSRDNAKNTVYLQMNSLKPEDTAVYYCAKERYNANYDTSLYDYWGQGTQVTVSS", "polyreactivity (PSR sort gate)": "low polyreactivity"}
{"sequence": "QVQLVESGGGLVQAGGSLRLSCAASGSTFLYYSMGWYRQAPGKETELVAAIDSGGSTYYADSVKWRFTISRDNAKNTVYLQMNSLKPEDTAVYYCNPDFADHWPPNGPGAHDYWGQGTQVTVSS", "polyreactivity (PSR sort gate)": "low polyreactivity"}
{"sequence": "QVQLVESGGGLVQAGGSLRLSCAASGSTFNAYAMGWNRQAPGKERELVAVISSSGGRTYYADSVKGRFTISRDNAKNTVYLQMNSLKPEDTAVYYCNADVKYRYNHWGQGTQVTVSS", "polyreactivity (PSR sort gate)": "high polyreactivity"}
{"sequence": "QVQLVESGGGLVQAGGSLRLSCAASGSTFNDYAMGWYRQAPGKERELVAGITWRGTSTYYADSVKGRFTISRDNAKNTVYLQMNSLKPEDTAVYYCAADVYYLLWLWMDYWGQGTQVTVSS", "polyreactivity (PSR sort gate)": "low polyreactivity"}
{"sequence": "QVQLVESGGGLVQAGGSLRLSCAASGSTFNDYAMGWYRQAPGNERELVAGITWRGTSTYYADSVKGRFTISRDNAKNTVYLQMNSLKPEDTAVYYCNADHVYGGYQYDFDYWGQGTQVTVSS", "polyreactivity (PSR sort gate)": "low polyreactivity"}
{"sequence": "QVQLVESGGGLVQAGGSLRLSCAASGSTFNDYVMGWYRKAPGKERELVAAISRSGGSTYYADSVKGRFTISRDNAKNTVYIQMNSLKPEDTAFYYCNSDVGYWWGYYGYDYWGQGTQVTVSS", "polyreactivity (PSR sort gate)": "high polyreactivity"}
{"sequence": "QVQLVESGGGLVQAGGSLRLSCAASGSTFNGNVMGWYRQAPGKDRELVAGISKSGGTTYYADSVKGRFTISRDNAKNTVYLQMNSLKPEDTAVYYCDARGRVRYYPQYDYWGQGTQVTVSS", "polyreactivity (PSR sort gate)": "high polyreactivity"}
{"sequence": "QVQLVESGGGLVQAGGSLRLSCAASGSTFNGYAMGWYRQAPGKERELVAAISKRGGSTYYADSVKGRFTISRDNAKNTVYLQMNSLKPEDTAVYYCAARNPTKYLMDYWGKGTQVTVSS", "polyreactivity (PSR sort gate)": "high polyreactivity"}
{"sequence": "QVQLVESGGGLVQAGGSLRLSCAASGSTFNIYVMGSYREPPGKERELVAAITTSGRTYYADSVKGRFTISRDNAKNTVYLQMNSLKPEDNAVYYCAAATGTYGRGGYYWGQGTQVTVSS", "polyreactivity (PSR sort gate)": "high polyreactivity"}
{"sequence": "QVQLVESGGGLVQAGGSLRLSCAASGSTFNLYAMGWYRPAPGKERELVAAISRGGSTYYADSVKGRFTISRDNAKNTVYLQMNSLKPEDTAVYYCAARSWYDRYPYYSWGQGTQVTVSS", "polyreactivity (PSR sort gate)": "high polyreactivity"}
{"sequence": "QVQLVESGGGLVQAGGSLRLSCAASGSTFNLYAMGWYRQAHGKERELVADITWSGGSTYYADSVKWRFTISRDNAKKTFYLQMNSLKPEDTAVYYCAAYGLSWGGYDYWGQATQVTVSS", "polyreactivity (PSR sort gate)": "low polyreactivity"}
{"sequence": "QVQLVESGGGLVQAGGSLRLSCAASGSTFNNYGMGWYTQAPGTERELVAAITKSGGITYYADSVKGRFTISRDNAKNTVYLQMNRLKREDTAVYYCAAAYTIYWFSYRVLYYYWGQGTQVTVSS", "polyreactivity (PSR sort gate)": "low polyreactivity"}
{"sequence": "QVQLVESGGGLVQAGGSLRLSCAASGSTFNPYTMGWPRQAPGKERELVATITRIGGSTYYADSVKGRFTISRDNAKNTVDLQMNSLKPEDNAVYYCAADHYRSVRWRSDYTYRVNYWGQGTQVTVSS", "polyreactivity (PSR sort gate)": "high polyreactivity"}
{"sequence": "QVQLVESGGGLVQAGGSLRLSCAASGSTFNRNAMGWYRQAPGKERELVAAISWRGDSTSYADSVKGRFTISRDNAKNTVYLQMNSLKPEDTAVYYCATAHDYAFYRYWYVPSEYNYWGQGSQVTVSS", "polyreactivity (PSR sort gate)": "low polyreactivity"}
{"sequence": "QVQLVESGGGLVQAGGSLRLSCAASGSTFNRNGMGWYRQAPGKERELVAAISRSTTSTYYADSVKGRFTISRDNAKNTVYLQMNSLKPEDTAVYYCATPHRYRVDYWGQGTQVTVSS", "polyreactivity (PSR sort gate)": "high polyreactivity"}
{"sequence": "QVQLVESGGGLVQAGGSLRLSCAASGSTFNRYAMGWYRQAPGKERELVAAISWNGGSTYYADSVKGRFTSSRDNAKNTVYLQMNSLKPEDTAVYYCATLVRKYDGFNYWGQGTQVTVSS", "polyreactivity (PSR sort gate)": "high polyreactivity"}
{"sequence": "QVQLVESGGGLVQAGGSLRLSCAASGSTFNRYAMGWYRQAPGKERELVASISWGGGRTYYADSVKGRFTISRDNAKNTVYLQMNSLKPEDTAVYYCATDRYYRHYEVDYWGQGTQVTVSS", "polyreactivity (PSR sort gate)": "low polyreactivity"}
{"sequence": "QVQLVESGGGLVQAGGSLRLSCAASGSTFNSNAMGWYRQAPGKERELVASITWTDVSTYYADSVKGRFTISRDNAKNTVYLQMNSLKPEDTAVYYCAAVTGLSSNDGYDYWGQGTQVTVSS", "polyreactivity (PSR sort gate)": "low polyreactivity"}
{"sequence": "QVQLVESGGGLVQAGGSLRLSCAASGSTFNWYAMGWYRQAPGKERELVAAISSGGNTNYADSVKGRFTISRDNAKNTVYLQMNSLKPEDTAVYYCAARYPYKHLAWSTSKRFGYWGQGTQVTVSS", "polyreactivity (PSR sort gate)": "low polyreactivity"}
{"sequence": "QVQLVESGGGLVQAGGSLRLSCAASGSTFNYYAMGGNRQAPGKESELVAAISTRGSSTSYADSVKGRFTISRDNAKNTVYLQMNSLKPEDTAVYYCTAPRWSPRRYGYWGQGTQVTVSS", "polyreactivity (PSR sort gate)": "high polyreactivity"}
{"sequence": "QVQLVESGGGLVQAGGSLRLSCAASGSTFPFNAMGWYRQAPGKERELVAAITTSAGSTYYADSVKGRFTISRDNAKKTVYLQMNSLKPEDTAVYYCAARYVPPWGRRYYYWGQGTQVTVSS", "polyreactivity (PSR sort gate)": "high polyreactivity"}
{"sequence": "QVQLVESGGGLVQAGGSLRLSCAASGSTFPFNAMGWYRQAPGKERELVAVITYSGGSTYYADSVKGRFTISRDNAKNTVYLHMNSLKPVVTAVYYCAADVYYWGSTYYYWGLGTQVTVSS", "polyreactivity (PSR sort gate)": "high polyreactivity"}
{"sequence": "QVQLVESGGGLVQAGGSLRLSCAASGSTFPFYVMGWYRQAPGKERELVASIRGTGGNTYYADSVKGRFTISRDNAKNTVYLQMNSLKPEDTAVYYCNAVYRLSHYDLDYWGQGTQVTVSS", "polyreactivity (PSR sort gate)": "high polyreactivity"}
{"sequence": "QVQLVESGGGLVQAGGSLRLSCAASGSTFPGNAMGWYRQAPGKERELVAAINWSGDSTYYADSVKGRFTISRDNAKNTVYLQMNSLKPEDTAVYYCAAYGVGYYYWGQGTQVTVSS", "polyreactivity (PSR sort gate)": "low polyreactivity"}
{"sequence": "QVQLVESGGGLVQAGGSLRLSCAASGSTFPGNAMGWYRQAPGKERELVAAITSTGTTYYADSVKGRFTISRDNAKNTVYLQMNSLKPEDTAVYYCNADPSPDPSTFDYWGQGTQVTVSS", "polyreactivity (PSR sort gate)": "low polyreactivity"}
{"sequence": "QVQLVESGGGLVQAGGSLRLSCAASGSTFPGNAMGWYRQAPGKERELVASIRRSGGSTYYADSVKGRFTISRDNAKNTVYLQMNSLKPEDTAVYYCAKRTFLVSGPRSYGWYGVYYWGQGTQVTVSS", "polyreactivity (PSR sort gate)": "high polyreactivity"}
{"sequence": "QVQLVESGGGLVQAGGSLRLSCAASGSTFPGYAMGWYRQAPGKERELVAAITAGGGSTYYADSVKGRFTISRDNAKNSVYLLMKSLKPEDTAVYYCAKRYSYYGWRRYDYWGQGTQVTVSS", "polyreactivity (PSR sort gate)": "high polyreactivity"}
{"sequence": "QVQLVESGGGLVQAGGSLRLSCAASGSTFPGYAMGWYRQAPGKERELVAAITTSGGSTYYADSVKGRFTISRDNAKNTVYLQMNSLKPEDTAVYYCAADYWYYLDAGYYWGQGTQVTVSS", "polyreactivity (PSR sort gate)": "low polyreactivity"}
{"sequence": "QVQLVESGGGLVQAGGSLRLSCAASGSTFPGYAMGWYRQAPGKERELVASIYTGGSTYYADSVKGRFTISRDNAKKTVYLQMHSLKPEDSAVYYCAADSYNVSSLMYYWGQGTQVTVSS", "polyreactivity (PSR sort gate)": "low polyreactivity"}
{"sequence": "QVQLVESGGGLVQAGGSLRLSCAASGSTFPINAMGWYRQAPGKERELVACISSGGSTDYADSVKGRFTISRVNAKNTVYLQMNSLKAEHTAVYYWAAVRGPSLVTKYPHDYWGQGTQVTVSS", "polyreactivity (PSR sort gate)": "low polyreactivity"}
{"sequence": "QVQLVESGGGLVQAGGSLRLSCAASGSTFPINTMGWYRQAPGKERELVAAITHSGGRTYYADSVKGRFTISRVNAKNTVYLQMNSLKPEDTAVYYCNAVRYYAVRVSDGDYDYWGQGTQVTVSS", "polyreactivity (PSR sort gate)": "low polyreactivity"}
{"sequence": "QVQLVESGGGLVQAGGSLRLSCAASGSTFPKYAMGWYRQAPGKERELVAAISWYGGRTYYADSVKGRFTISRDNAKHTVYLQMNSLKPEDTAVYYCAASIPGTRSDGYWGQGTQVTVSS", "polyreactivity (PSR sort gate)": "low polyreactivity"}
{"sequence": "QVQLVESGGGLVQAGGSLRLSCAASGSTFPKYAMGWYRQAPGKERELVALITSSTGTTYYADSVKGRFTISRDNAKNTVYLQMNSLKPEDTAVYYCNARVRYREWGLYYWGQGTQVTVSS", "polyreactivity (PSR sort gate)": "high polyreactivity"}
{"sequence": "QVQLVESGGGLVQAGGSLRLSCAASGSTFPKYAMGWYRQAPGKERELVASISVTTGSTYYADSVKGRFTISRDNAKNTVYLQMNSLKPEDTAVYYCAARRGWGDDYWGQGTQVTVSS", "polyreactivity (PSR sort gate)": "high polyreactivity"}
{"sequence": "QVQLVESGGGLVQAGGSLRLSCAASGSTFPLYAMGWYRQAPGKDRELVAAITWSGANTYYADSVKGRFTISRDNAKNTVSLQMNSLKPEDTAVYYCAAGSYAGFAVIGYYYWGQGTQVTVSS", "polyreactivity (PSR sort gate)": "low polyreactivity"}
{"sequence": "QVQLVESGGGLVQAGGSLRLSCAASGSTFPPNAMGWYRQAPGKERELVAVISNGGSNTRYADSVKGRFTISRDIAKNTVYLQMNSLKPEDTAVYYCAADYEYSGYGYWGQGTQVTVSS", "polyreactivity (PSR sort gate)": "high polyreactivity"}
{"sequence": "QVQLVESGGGLVQAGGSLRLSCAASGSTFPPNAMGWYRQAPGKERELVAVISYSDGSTYYADSVKGRFTISRDNAKNTVYLQMNSLKPEDTAVYYCAAYSGYGGVSMYYWGQGTQVTGSS", "polyreactivity (PSR sort gate)": "low polyreactivity"}
{"sequence": "QVQLVESGGGLVQAGGSLRLSCAASGSTFPPNGMGWYRQAPGKERELVAAIRWRGGSTYYADSVKGRFTISRDNAKNTVYLQMNSLKPEDTAVYYCAKYVTYSRPTNSPSGKHVYWGQGTQVTVSS", "polyreactivity (PSR sort gate)": "low polyreactivity"}
